The target of this test is modern EF-Tu (elongation factor Tu) from E. coli (E. coli) (UniProt P0CE47). The test can be described thus: ITC; Microcal ITC200; 0.6-1 mM NusA in the syringe titrated (2.5 uL injections, 120-s intervals) into 10 uM EF-Tu in the cell; Buffer C (20 mM Tris-HCl pH 7.5, 50 mM MgCl2, 100 mM KCl). Background: ITC needs no label: the signal is the heat of the interaction.

The Kd is the free concentration of one partner at which half of the binding sites on the other are occupied at equilibrium, for simple one-to-one binding. A lower Kd goes with higher affinity.

In turn, “wild-type NusA protein from E. coli (from UniProt P0AFF6 1-495) (natural protein)” came in with a Kd of 14.6 µM. That is a double-digit micromolar value.

The values above are taken from PMC5371648.
